Results from PMC12637829 (Research Square, 2025).

Target: the molecule itself
Experiment: cryo-EM structure; amyloid fibrils polymerised from monomer at 4°C with seeds (5% mol/mol) in 5 mM KPi, 150 mM NaCl, pH 7.4, without agitation; third-generation (G3) fibrils

B1: Sup35NM S17R (domain or fragment, yeast, UniProt P05453 1-253, looked up)
chain: MSDSNQGNNQQNYQQYRQNGNQQQGNNRYQGYQAYNAQAQPAGGYYQNYQGYSGYQQGGYQQYNPDAGYQQQYNPQGGYQQYNPQGGYQQQFNPQGGRGNYKNFNYNNNLQGYQAGFQPQSQGMSLNDFQKQQKQAAPKPKKTLKLVSSSGIKLANATKKVGTKPAESDKKEEEKSAETKEPTKEPTKVEEPVKKEEKPVQTEEKTEEKSELPKVEDLKISESTHNTNNANVTSADALIKEQEEEVDDEVVND
notes: Sup35, yeast translation termination factor; NM domain = N-terminal prion domain (N or PrD) plus the polar M region (M124-D253), with S17R; In the fibril, many copies are stacked along the axis; also called S17R mutant; S17R4 (fibrils formed at 4°C); not shown: 7x histidine, C-terminal, kept
B1: binds.
